In paper PMC5112231:
Substitutions are numbered along the chain they refer to.

What was measured:
Assay in all cases: EMSA
Conditions in all cases: EMSA: binding buffer 100 mM Tris-HCl pH 8, 375 mM NaCl, 25 mM MgCl2, 5 mM DTT, 65% glycerol [sic]; about 1 nmol DNA in 20 ul, 25 C …
[1] = target: T1, Lrp K25Q K25Q (Salmonella Typhimurium 14028s) (UniProt A0A0F6AZA3)
T1 sequence: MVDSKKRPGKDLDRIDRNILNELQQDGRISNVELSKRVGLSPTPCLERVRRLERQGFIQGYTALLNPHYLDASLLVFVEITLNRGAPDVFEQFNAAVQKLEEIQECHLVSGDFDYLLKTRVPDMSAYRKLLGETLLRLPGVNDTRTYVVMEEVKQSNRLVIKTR

[2] = target: T2, Lrp K36Q K36Q (Salmonella Typhimurium 14028s) (UniProt A0A0F6AZA3)
T2 sequence: T1 sequence with Q25K, K36Q

[3] = target: T3, Lrp K36R K36R (Salmonella Typhimurium 14028s) (UniProt A0A0F6AZA3)
T3 sequence: T1 sequence with Q25K, K36R

[4] = target: T4, Lrp wild type (Salmonella Typhimurium 14028s) (UniProt A0A0F6AZA3)
T4 sequence: T1 sequence with Q25K

“ACACAGTGGAGCAATAATAAAGAATGAGACCTCCCTGTTGACTGGCTATTTTGCGTAAGAGTAATAAATATGTGGAATATCCATTTCGCACCAACAAAAAAGAAATTTCTGATTAAGTAAAAACAATATGGATTATACCTGGTCTGATTTCTCGGAAAAGTCTTGCGAAATGCGAATTATGGATAGCGGGTAGGATATTCTG (double strand) [fimZ promoter]” was tested. Which binding [1] did it give?
Its binding is “binds”.

And the binding [2]?
Its binding is “binds more weakly”.

What about the binding [3] of the same sequence?
Its binding is “binds”.

And the binding [4]?
Its binding is “binds”.
